From the supplement of paper PMC9112550, “Optimization of the antimicrobial peptide Bac7 by deep mutational scanning” (BMC Biology, 2022)

System: Escherichia coli TOP10
Experiment: shrunken log2 fold change of peptide-encoding DNA abundance (4.5 h post-induction vs induction); higher = less antimicrobial activity (less host growth inhibition)
Conditions: time post-induction: 4.5 h; library: site-saturation at positions 5, 18, 19, 20
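Also: peptides expressed intracellularly from a pBAD plasmid library in pooled LB shake-flask culture, induced with 0.3% L-arabinose, DNA abundance read by NGS, three biological replicates, DESeq2 with apeglm shrinkage.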

Sequence | shrunken log2 fold change
RRIRVRPPRLPRPRPRPGGFPRP | 0.211
RRIRVRPPRLPRPRPRPGHAPRP | 0.245
RRIRVRPPRLPRPRPRPGIEPRP | -0.28
RRIRVRPPRLPRPRPRPGIYPRP | -0.623
RRIRVRPPRLPRPRPRPGKCPRP | 0.0804
RRIRVRPPRLPRPRPRPGKFPRP | -0.17
RRIRVRPPRLPRPRPRPGNLPRP | -0.101
RRIRVRPPRLPRPRPRPGNWPRP | 0.0971
RRIRVRPPRLPRPRPRPGPIPRP | 0.0476
RRIRVRPPRLPRPRPRPGTNPRP | -0.254
RRIRVRPPRLPRPRPRPGVRPRP | 0.188
RRIRVRPPRLPRPRPRPGVYPRP | -0.0713
RRIRVRPPRLPRPRPRPGWEPRP | 0.123
RRIRVRPPRLPRPRPRPGWVPRP | 0.0954
RRIRVRPPRLPRPRPRPGYSPRP | -0.553
RRIRVRPPRLPRPRPRPHADPRP | 0.00219
RRIRVRPPRLPRPRPRPHDDPRP | -0.162
RRIRVRPPRLPRPRPRPHDMPRP | -0.0267
RRIRVRPPRLPRPRPRPHEYPRP | -0.419
RRIRVRPPRLPRPRPRPHFCPRP | -0.0628
RRIRVRPPRLPRPRPRPHGCPRP | -0.041
RRIRVRPPRLPRPRPRPHHEPRP | -0.582
RRIRVRPPRLPRPRPRPHLEPRP | -0.133
RRIRVRPPRLPRPRPRPHLSPRP | -0.301
RRIRVRPPRLPRPRPRPHLYPRP | -0.309

Sequence | shrunken log2 fold change
RRIRVRPPRLPRPRPRPHMVPRP | -0.53
RRIRVRPPRLPRPRPRPHNCPRP | -0.0364
RRIRVRPPRLPRPRPRPHNNPRP | -0.652
RRIRVRPPRLPRPRPRPHNSPRP | -0.23
RRIRVRPPRLPRPRPRPHPGPRP | -0.325
RRIRVRPPRLPRPRPRPHRDPRP | -0.198
RRIRVRPPRLPRPRPRPHRSPRP | -0.164
RRIRVRPPRLPRPRPRPHSEPRP | -0.392
RRIRVRPPRLPRPRPRPHSPPRP | -0.0205
RRIRVRPPRLPRPRPRPHYGPRP | -0.0301
RRIRVRPPRLPRPRPRPHYMPRP | -1.03
RRIRVRPPRLPRPRPRPIAEPRP | 0.127
RRIRVRPPRLPRPRPRPIAFPRP | -0.207
RRIRVRPPRLPRPRPRPIAWPRP | 0.468
RRIRVRPPRLPRPRPRPIDQPRP | 0.216
RRIRVRPPRLPRPRPRPIENPRP | -0.229
RRIRVRPPRLPRPRPRPIFEPRP | 0.149
RRIRVRPPRLPRPRPRPIFTPRP | -0.0783
RRIRVRPPRLPRPRPRPIFWPRP | 0.00106
RRIRVRPPRLPRPRPRPIHLPRP | -0.197
RRIRVRPPRLPRPRPRPIHSPRP | -0.252
RRIRVRPPRLPRPRPRPIIHPRP | -0.809
RRIRVRPPRLPRPRPRPIIQPRP | -0.28
RRIRVRPPRLPRPRPRPIKPPRP | -0.15
RRIRVRPPRLPRPRPRPILYPRP | 0.0692

Sequence | shrunken log2 fold change
RRIRVRPPRLPRPRPRPIMLPRP | -0.122
RRIRVRPPRLPRPRPRPINTPRP | -1.07
RRIRVRPPRLPRPRPRPIQFPRP | -0.0307
RRIRVRPPRLPRPRPRPIRHPRP | -0.112
RRIRVRPPRLPRPRPRPISGPRP | -0.118
RRIRVRPPRLPRPRPRPITEPRP | -0.0116
RRIRVRPPRLPRPRPRPITHPRP | -0.171
RRIRVRPPRLPRPRPRPIVCPRP | -0.0744
RRIRVRPPRLPRPRPRPIVNPRP | -0.11
RRIRVRPPRLPRPRPRPIWIPRP | 0.0696
RRIRVRPPRLPRPRPRPIWSPRP | 0.0334
RRIRVRPPRLPRPRPRPIYRPRP | -0.491
RRIRVRPPRLPRPRPRPKCAPRP | 0.0145
RRIRVRPPRLPRPRPRPKCSPRP | -0.065
RRIRVRPPRLPRPRPRPKEHPRP | 0.0755
RRIRVRPPRLPRPRPRPKFEPRP | 0.12
RRIRVRPPRLPRPRPRPKHDPRP | -0.31
RRIRVRPPRLPRPRPRPKHFPRP | 0.0968
RRIRVRPPRLPRPRPRPKIEPRP | 0.132
RRIRVRPPRLPRPRPRPKKQPRP | 0.216
RRIRVRPPRLPRPRPRPKLYPRP | -0.0874
RRIRVRPPRLPRPRPRPKMNPRP | -0.262
RRIRVRPPRLPRPRPRPKMWPRP | 0.0893
RRIRVRPPRLPRPRPRPKQCPRP | -0.141
RRIRVRPPRLPRPRPRPKRAPRP | 0.553
